Measured values as given in the supplement of paper PMC9170038.

System: MS2 coat protein
Assay: apparent KD of MS2 coat protein; designed switch direction (-1 OFF switch, 1 ON switch): 1; higher = weaker reporter binding
How it was run: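 For each design, the apparent KD is the median over clusters of curves fitted to normalised cluster fluorescence. Clusters held RNA switches with common flanks, transcribed on Illumina chips by stalled E. coli RNA polymerase. These were titrated with SNAP-549-labelled MS2 coat protein, doubling from 0.7 or 1.5 nM to 3 µM, without input, with 200 uM small-molecule ligand, or with an oligonucleotide input.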

[1] = input ligand: microRNA oligo, concentration not stated
[2] = Eterna round: R95, input ligand: FMN 200 uM
[3] = Eterna round: R95, input ligand: microRNA oligo, concentration not stated
[4] = Eterna round: R95, input ligand: none

Sequence | apparent KD of MS2 coat protein [1] | apparent KD of MS2 coat protein [2] | apparent KD of MS2 coat protein [3] | apparent KD of MS2 coat protein [4] | apparent KD of MS2 coat protein (input ligand: FMN 200 uM) | apparent KD of MS2 coat protein (input ligand: none)
UGUUGUAUUACAGGAUAUCUAUUAUUUAUAUUUAGAGAAGGGUAUUCACAUGAGGAUCACCCAUGUAUAUACGAGGAAGUUGUG [JMF's solution 19] (Eterna round: R96, puzzle: Same State NG 1) | 0.0364 µM | – | – | – | – | –
GAGAGAGGAAGCGAGGAUAUCGUGUUGAGUACAUGAGGAUCACCCAUGUUGUAGGUAGAGGUAGGCGAGAAGGCGCAGGAGAGGG [JR_SS2_Sub099] (puzzle: Same State 2) | – | 0.043 µM | 0.0432 µM | 0.051 µM | – | –
UUAUUAUAUAUAGGAUAUUGAUGUAAUUUAUUUCAAGAAGGAUAUACAUGAGGAUCACCCAUGUUGGAUAGGGUUAGUUUGUUU [JR_SSNG1_Sub079] (Eterna round: R96, puzzle: Same State NG 1) | 0.074 µM | – | – | – | – | –
GUUACAUGAGGAUCACCCAUGUAUGUGUGGGAGUAAGUGUCUUAGGAUAUCUAGUAUUUAAUUUUAGAGAAGGAAGAUUGUUGU [JMF's solution 69] (Eterna round: R96, puzzle: Same State NG 3) | 0.121 µM | – | – | – | 0.128 µM | 0.134 µM
GCAAUAAGGUGAGGAUAUGCAGAGGAUCACCCUGUAGAAGGCAUCAGGUGAGGAUAUGCAGAGGAUCACCCUGUAGAAGGCAUC [pwkr ssNG DX.15] (Eterna round: R96, puzzle: Same State NG 1) | 0.123 µM | – | – | – | 0.1 µM | 0.175 µM
GUGGUGGGUUGAGGAUAUUGGUUGUUGUUGUUCCACAUGAGGAUCACCCAUGUGGGUUGUGGUUUUGAGAAGGUUGGUUGCUGG [salish99_SSNG2_r04_050] (Eterna round: R96, puzzle: Same State NG 2) | 0.0142 µM | – | – | – | 0.0172 µM | 0.0203 µM
CCCAGCGUUACAGGAUAUGGUGAGGAUCACCCACUAGAAGGGUAAACAUGUGCGUCGGACAUGAGGAUCACCCAUGUAGGGCGU (Eterna round: R96, puzzle: Same State NG 1) | 0.0179 µM | – | – | – | 0.0206 µM | 0.027 µM
UAUGAUGCCGUAGGAUAUCUAGGAUAUGGACGAGGAUCACCCGAGCAGCAUCAGCGCACCAGAGGAGAGAAGGACGCUUUGGAA [pwkr ssNG2 2F5 2FMN.22] (Eterna round: R96, puzzle: Same State NG 2) | 0.658 µM | – | – | – | 0.477 µM | 0.486 µM
UUAAUAAUGUAAGGAUAUACAUGAGGAUUUCUCGUAGAAGGUACAGGACAUGAGGAUCACCCAUGUAUCGCUCAGAAGAGCGUA [Mat - Same State NG 1 - JL mod - D24] (Eterna round: R96, puzzle: Same State NG 1) | 0.715 µM | – | – | – | 1.4 µM | 1.75 µM
GGUCAGACUCACAUGAGGAUCACCCAUGUACCGGAAACGGCACAGGAUAUCUGUCCGAAAAGGUCAGAGAAGGGUGUACUGACC [Fiskers NG3ss - 53] (Eterna round: R96, puzzle: Same State NG 3) | 0.0229 µM | – | – | – | 0.277 µM | 0.082 µM
UUGAAUAAUUAAGGAUAUCGAGUCAAGAUGUUAAACAUGAGGAUCACCCAUGUGGGUUGCGGUAUCGAGAAGGUAAAUAAUAAG [Mat - Same State NG 2 - JL mod - D56] (Eterna round: R96, puzzle: Same State NG 2) | 0.0288 µM | – | – | – | 0.0386 µM | 0.0365 µM
UAAAUACAUGAGGAUCACCCAUGUCAAAAGACAUGAGGAUAUGUACAGACUUCGGUCUGUACAGAAGGCAUGAAAA [salish99_ss1_r3_095] (puzzle: Same State 1) | – | 0.0436 µM | 0.708 µM | 0.89 µM | – | –
GAGGCACAUGAGGAUCACCCAUGUGGGUAUAACAUAGGAUAUCACCAACAAAAUACCCGGUGAGAAGGAUGAUGCC [Ravevele] (puzzle: Same State 1) | – | – | 0.158 µM | – | – | –
GGAAAGAGGUAAGGAUAUGCAUGGCUGGGACAUGAGGAUCACCCAUGUUAUAGAAGAAAUCUAGGGUAGAAGGUACAAGGAAGG [AK SSNG2-V2-9.1] (Eterna round: R96, puzzle: Same State NG 2) | 0.199 µM | – | – | – | 0.464 µM | 0.455 µM
ACAUGAGACUAAGGAUAUGGUGUACCUACAUGUGACAUGAGGAUCACCCAUGUGGUAAGUAUGACUCAGAAGGUAGAGAUAUGU [Equivalance 75 - Jieux - Same State NG 2] (Eterna round: R96, puzzle: Same State NG 2) | 0.28 µM | – | – | – | 0.0379 µM | 0.436 µM
ACAUGAGAUCGAGGAUAUUUUGUACCUACAUGUGACAUGAGGAUCACCCAUGUGGUAAGUAUGAGAAAGAAGGCGAAGAUAUGU [Equivalence 16 - Jieux - Same State NG 2] (Eterna round: R96, puzzle: Same State NG 2) | 0.0293 µM | – | – | – | – | –

Sequence | apparent KD of MS2 coat protein [1] | apparent KD of MS2 coat protein [2] | apparent KD of MS2 coat protein [3] | apparent KD of MS2 coat protein [4] | apparent KD of MS2 coat protein (input ligand: FMN 200 uM) | apparent KD of MS2 coat protein (input ligand: none)
GGUAGGUUACUACCAGACAUGAGGAUCACCCAUGUAAAUGGGAAGGAUAUGGUACCGUUUCGGUACCAGAAGGUCCUAAAUGAG [JL SSNG3 1.47] (Eterna round: R96, puzzle: Same State NG 3) | 0.644 µM | – | – | – | 0.301 µM | 1.75 µM
UGGUAACAUGAGGAUCACCCAUGUCAAAUGAAUCAAGGAUAUGGGAAAGGAGAAGAGAAACCAGAAGGUGAGGUUG [Altered State 1-15 - Jieux - Same State 1] (puzzle: Same State 1) | – | 0.108 µM | 0.205 µM | 0.167 µM | – | –
GCGGCGGCACGGCAGGAUAUGAUAAAACCUACAUGAGGAUCACCCAUGUCGGCGGGUUGCAAAAUUCAGAAGGGCCCUGUAGGCC [Leorzaonis] (puzzle: Same State 2) | – | 0.0166 µM | 0.0346 µM | 0.0386 µM | – | –
GCGAAAUGAUGAAACAUGAGGAUCACCCAUGUAACGAGAGAUGAGGAUAUCGGAAAGGGAGGAGACGAGAAGGCAUGGUCACGC [AK SSNG3-V2-25.1] (Eterna round: R96, puzzle: Same State NG 3) | 0.043 µM | – | – | – | 0.0484 µM | 0.0587 µM
AAAGAACAUGAGGAUCACCCAUGUGGAAGAGGCACAGGAUAUCACCUCGCACGUGCGAGGUGAGAAGGGUGAUGGU [Zalecema] (puzzle: Same State 1) | – | 0.122 µM | 0.0807 µM | 0.128 µM | – | –
AUGAAGAACUAAGGAUAUUGAAUACAUAUGUUUAACAUGAGGAUCACCCAUGUGGGUUGCGGUAUCGAGAAGGUAGAAUAAUAG [Mat - same State NG 2 - JL mod - D92] (Eterna round: R96, puzzle: Same State NG 2) | 0.0703 µM | – | – | – | 0.0957 µM | 0.123 µM
UGUCCAGCCUGUGCUGGUCUUUUGCAUGUACAUGAGGAUCACCCAUGUCGUGUUCAUGCUUUUUGCUCGUCUUUAAA [Photon Torp-02] (puzzle: Sensor for hsa-mir-208a) | – | 0.0497 µM | 0.0172 µM | 0.0535 µM | – | –
GGACGGUUAUCAGGAUAUGCGCUGAGCAUCACGGCUACAUGAGGAUCACCCAUGUCUAGCUUCUCGCAGAAGGGAUAGCCUCCU [Eternabot solution 36] (Eterna round: R96, puzzle: Same State NG 2) | 0.0101 µM | – | – | – | 0.0112 µM | 0.015 µM
ACAUGAGAAUUAGGAUAUAUAGUACCUACAUGUGACAUGAGGAUCACCCAUGUGGUAAGUAUGACAUAGAAGGAAUAGAUAUGU [Equivalance 97 - Jieux - Same State NG 2] (Eterna round: R96, puzzle: Same State NG 2) | 0.0429 µM | – | – | – | 0.0665 µM | 0.0568 µM
CACAAUCUAUCUGAGGAUAUCAUGAAAAAAACAUGAGGAUCACCCAUGUGCAGGAAAACUGCAUAUGAGAAGGCAGAUAGAUUGC [salish99_SS2_r3_013] (Eterna round: R96, puzzle: Same State 2) | 0.452 µM | – | – | – | – | –
UUGUUUUGAAAUUAACAUGAGGAUCACCCAUGUCGUGAGACAGAGGAUAUACAGGAAUGUAGGUAGUAGAAGGCUGUUUAGUGU [JR_SSNG3_Sub099] (Eterna round: R96, puzzle: Same State NG 3) | 0.0956 µM | – | – | – | 0.0994 µM | 0.142 µM
ACAUGAGAAAGAGGAUAUUUUGUACCUACAUGUGACAUGAGGAUCACCCAUGUGGUAAGUAUGAGAAAGAAGGCUUAGAUAUGU [Equivalence 13 - Jieux - Same State NG 2] (Eterna round: R96, puzzle: Same State NG 2) | 0.0431 µM | – | – | – | 0.0206 µM | 0.0617 µM
CCAACGUACAAUUUAGAUCUACAUGAGGAUCACCCAUGUACGGAGGAUAUCAGCUCGUUUAGAGCUGAGAAGGCCGAAUUAAUU [SSNG3/2-A3] (Eterna round: R96, puzzle: Same State NG 3) | 0.238 µM | – | – | – | – | –
GAUUCACAUGAGGAUCACCCAUGUCGUUUUAUGGGAGGAUAUACGUGGACCGUAGUCCGCGUAGAAGGCCUAAUUG [JL-ss1-3.24 janelle mod] (puzzle: Same State 1) | – | – | 0.0921 µM | – | – | –
UCUUGGUUUUUGCUCGUUUUUUGUGUUGAACAUGAGGAUCACCCAUGUAUUGUACGGUCCGGUUUAGUAGUGGUCCG [JMF 17] (puzzle: Sensor for hsa-mir-208a) | – | 0.0257 µM | 0.0166 µM | 0.0304 µM | – | –
